The values below are quoted from earlier work in paper PMC9464413.

The target of this data set is p97 (Homo sapiens) (UniProt P55072). Put plainly: SPR.
Chain of UniProt P55072 (P55072 2-806): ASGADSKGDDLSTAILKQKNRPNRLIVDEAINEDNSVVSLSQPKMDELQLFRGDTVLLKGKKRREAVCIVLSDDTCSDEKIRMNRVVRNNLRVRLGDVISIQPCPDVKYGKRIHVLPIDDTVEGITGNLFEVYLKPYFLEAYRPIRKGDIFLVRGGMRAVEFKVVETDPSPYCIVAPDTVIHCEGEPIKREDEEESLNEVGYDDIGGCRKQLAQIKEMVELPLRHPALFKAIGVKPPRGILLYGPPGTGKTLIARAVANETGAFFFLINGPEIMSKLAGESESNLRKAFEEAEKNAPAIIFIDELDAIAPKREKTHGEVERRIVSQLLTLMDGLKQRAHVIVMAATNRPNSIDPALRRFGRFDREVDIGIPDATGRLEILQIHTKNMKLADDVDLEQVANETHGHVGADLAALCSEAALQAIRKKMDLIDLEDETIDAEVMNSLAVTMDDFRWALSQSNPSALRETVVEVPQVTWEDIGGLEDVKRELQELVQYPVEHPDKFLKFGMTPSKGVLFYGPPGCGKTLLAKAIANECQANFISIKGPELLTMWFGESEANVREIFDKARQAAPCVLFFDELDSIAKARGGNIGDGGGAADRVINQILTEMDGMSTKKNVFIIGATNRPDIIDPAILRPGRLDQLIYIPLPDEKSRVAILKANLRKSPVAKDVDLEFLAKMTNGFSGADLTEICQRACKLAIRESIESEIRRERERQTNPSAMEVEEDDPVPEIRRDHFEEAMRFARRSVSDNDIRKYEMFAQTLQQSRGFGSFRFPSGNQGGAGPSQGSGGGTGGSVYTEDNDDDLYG

Regarding p47 (from UniProt Q9UNZ2), the Kd is 0.02 µM. p37 (from UniProt Q14CS0): the Kd was 0.029 µM.
